Results reported in US8759482B2, “Kinetically efficient substrate for lipoic acid ligase” (Massachusetts Institute of Technology, priority 2009, dated 2014).

Substrate: CC[C@H](C)[C@H](NC(=O)[C@H](CCC(=O)O)NC(=O)[C@H](Cc1ccccc1)NC(=O)CN)C(=O)N[C@@H](CC(=O)O)C(=O)N[C@@H](CCCCN)C(=O)N[C@H](C(=O)N[C@@H](Cc1c[nH]c2ccccc12)C(=O)N[C@@H](Cc1ccc(O)cc1)C(=O)N[C@@H](CC(=O)O)C(=O)N[C@@H](CC(C)C)C(=O)N[C@@H](CC(=O)O)C(=O)N[C@@H](C)C(=O)O)C(C)C
Assay: Lp1A-catalyzed lipoylation kinetics (kcat, Km) by HPLC
Type: biochemical, Escherichia coli
Settings: other: synthetic LAP2 peptide, 50 nM Lp1A, 750 μM lipoic acid, 30° C.
Description: Various concentrations of synthetic LAP2 peptide (not a fusion protein) were lipoylated with 50 nM Lp1A, 750 μM lipoic acid, and 3 mM ATP, and initial reaction rates were measured by HPLC. […] Measurements were performed in triplicate.
Using HPLC to quantify product formation, the kcat and Km values were measured for Lp1A-catalyzed lipoylation of a synthetic LAP2 peptide (without an attached fusion protein).
To measure the kcat and Km values for lipoylation, 50 nM Lp1A was combined with 750 μM lipoic acid, 2 mM ATP, and 5 mM magnesium acetate in DPBS. Varying concentrations of LAP2 (5.5, 11, 22, 44, 88, 176, or 352 μM) were used; 60 μL aliquots were removed from the 30° C. reactions at 5 min intervals, up to 20 min, and quenched with 180 mM EDTA (final concentration). HPLC was used to determine the amount of product in each aliquot, and kinetic parameters were extracted using the Michaelis-Menten equation as described previously.^13,28

B1: Escherichia coli lipoic acid ligase (Lp1A) (Escherichia coli K-12) (protein)
chain: MSTLRLLISDSYDPWFNLAVEECIFRQMPATQRVLFLWRNADTVVIGRAQNPWKECNTRRMEEDNVRLARRSSGGGAVFHDLGNTCFTFMAGKPEYDKTISTSIVLNALNALGVSAEASGRNDLVVKTVEGDRKVSGSAYRETKDRGFHHGTLLLNADLSRLANYLNPDKKKLAAKGITSVRSRVTNLTELLPGITHEQVCEAITEAFFAHYGERVEAEIISPNKTPDLPNFAETFARQSSWEWNFGQAPAFSHLLDERFTWGGVELHFDVEKGHITRAQVFTDSLNPAPLEALAGRLQGCLYRADMLQQECEALLVDFPEQEKELRELSAWMAGAVR
What does the source list for B1?
Km: 13.32 ± 1.78 µM; kcat: 0.22 s⁻¹; kcat/Km: 16500 M⁻¹ s⁻¹
